The assay deals with STAT3 (Homo sapiens (Human), UniProt P40763 1-770). Kind of assay: FLAG affinity purification from transfected cell lysate, immunoblot with STAT3 antiserum. For orientation: A western blot detects proteins with antibodies after separation by electrophoresis.
STAT3, sequence (P40763 whole entry): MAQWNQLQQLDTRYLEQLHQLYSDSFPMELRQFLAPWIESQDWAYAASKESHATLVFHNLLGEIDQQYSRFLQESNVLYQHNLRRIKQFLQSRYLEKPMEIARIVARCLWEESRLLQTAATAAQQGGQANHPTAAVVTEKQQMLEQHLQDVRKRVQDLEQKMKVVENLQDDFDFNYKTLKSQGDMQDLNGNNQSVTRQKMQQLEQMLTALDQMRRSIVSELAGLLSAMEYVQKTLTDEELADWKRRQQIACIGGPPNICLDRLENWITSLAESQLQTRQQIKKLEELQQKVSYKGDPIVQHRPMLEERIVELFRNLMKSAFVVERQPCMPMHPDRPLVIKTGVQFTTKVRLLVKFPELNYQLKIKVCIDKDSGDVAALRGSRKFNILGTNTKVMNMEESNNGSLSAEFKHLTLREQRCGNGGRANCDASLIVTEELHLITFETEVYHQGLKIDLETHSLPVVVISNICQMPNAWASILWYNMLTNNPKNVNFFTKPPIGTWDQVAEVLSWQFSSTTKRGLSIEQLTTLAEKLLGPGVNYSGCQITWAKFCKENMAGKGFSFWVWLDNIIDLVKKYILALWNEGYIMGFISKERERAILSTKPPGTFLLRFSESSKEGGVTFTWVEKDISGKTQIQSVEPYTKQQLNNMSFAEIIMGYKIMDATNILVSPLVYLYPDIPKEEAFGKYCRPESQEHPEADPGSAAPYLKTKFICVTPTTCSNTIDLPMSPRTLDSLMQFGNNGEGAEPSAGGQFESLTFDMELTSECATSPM

B1: FLAG-tagged SV5 V protein (other)
chain: MDPTDLSFSPDEINKLIETGLNTVEYFTSQQVTGTSSLGKNTIPPGVTGLLTNAAEAKIQESTNHQKGSVGGGAKPKKPRPKIAIVPADDKTVPGKPIPNPLLGLDSTPSTQTVLDLSGKTLPSGSYKGVKLAKFGKENLMTRFIEEPRENPIATSSPIDFKRGRDTGGFHRREYSIGWVGDEVKVTEWCNPSCSPITAAARRFECTCHQCPVTCSECERDT
notes: also called FLAG-SV5 V
Turning to B1, the binding result is listed as “no binding”.
